Substrate in data set [1]: O=C(O)C(=O)[C@@H](O)[C@H](O)C(=O)CO
The data set is described as follows: purified protein, by the assay type. Format: biochemical, Corynebacterium sp. As to conditions: other: Kb = Michaelis constant for 2,5-diketo-D-gluconic acid, cofactor NADH, pH 7.0, 25° C.

Substrate in data set [2]: O=C(O)C(=O)[C@@H](O)[C@H](O)C(=O)CO
The data set is described as follows: purified protein, by the assay type. Format: biochemical, Corynebacterium sp. The conditions noted are these: other: Kb = Michaelis constant for 2,5-diketo-D-gluconic acid, cofactor NADH, pH 7.0, 25° C. Here is the method:
The activities of the purified enzymes were assayed in 96-well microtiter plates on a plate reader.
Equation (1) is: [formula]
B=2,5-diketo-D-gluconic acid concentration;
Kb=Michaelis Constant for 2,5-diketo-D-gluconic acid;
Kia=Dissociation Constant for NADH;
Et=Total enzyme concentration.
However, the parameters could not be fit in this model with any accuracy, due to the large apparent value of KM for 2,5-diketo-D-gluconic acid, and the low concentration of 2,5-diketo-D-gluconic acid that was used. The 2,5-diketo-D-gluconic acid concentrations were not large enough to saturate the enzyme, so a further mathematical simplification was required. Preliminary fitting of the model indicated both kcat and Kb to be very large in comparison to Ka and Kia Therefore, the rate equation was simplified to the following equation (2): [formula]
This equation is only valid when B<<Kb.
This equation was then used to fit the kinetic data, with much better results.
Other comparisons can also be made between the different mutants using these parameters. […]
Cells containing plasmids for some of the mutant reductases were grown up on a 1 liter scale using a 10 ml inoculum from a saturated overnight culture. The cells were grown until absorbance of the culture at 600 nm was approximately 1.0. The cells were then induced by adding IPTG to a final concentration of 1 mM. The cells were harvested after growth at 37° C. for 4 hours. The cells were then pelleted by centrifugation and frozen for later use. At a later date, cells were thawed and lysed with the Bug Buster detergent (Novagen) containing Complete Protease Inhibitor Cocktail Tablets (Roche). The pH was lowered to 5.5 with 20 mM sodium acetate (NaOAc) and NaCl was added to a final concentration of 0.15 M. After 10 minutes with the detergent, the cell debris was removed by centrifugation, and the supernatant was loaded onto disposable chromatography columns containing a 10 ml bed volume of DEAE Cellulose (Sigma) for a batch weak ion exchange step. The resin was washed with 0.15 M NaCl, still in the presence of NaOAc, pH 5.5. The bound proteins were then eluted by two washes with 0.5 M NaCl. The eluted material was then diluted back to 0.15 M NaCl by the addition of more 20 mM NaOAc buffer. This was then loaded onto a 4.6 mmD/100mml PEEK column (PerSeptive Biosystems) containing 50 μm DEAE Ceramic HyperD F resin (BioSepra) using an FPLC system. The high performance resin was washed with 0.1 M NaCl and the bound proteins were eluted using a linear salt gradient up to 0.4 M NaCl. Active fractions were pooled and the pH was raised to 7.0 using 50 mM bis-Tris. The pooled fractions were then concentrated by ultrafiltration in a stirred cell unit using a polyethersulfone membrane with a 10,000 MW cut-off (Millipore). The concentrate was loaded onto a Superdex-75 gel filtration column (Pharmacia) using 50 mM bis-Tris pH 7.0 with an FPLC system. The active fractions were again pooled. A small sample from the pooled fractions was electrophoresed on a polyacrylamide gel in the presence of SDS in order to insure homogeneity of the final product.
NADPH and NADH were prepared fresh for each use in kinetic measurements. These reactions were performed in 96-well microtiter plates using a SpectraMax 190 plate reader (Molecular Devices). Varying amounts of cofactor and substrate were added to the wells and reaction was initiated by the addition of the mutant enzyme. The final volume of each reaction was 200 μl, the reactions were buffered with 50 mM bis-Tris pH 7.0, and the temperature was held at 25° C. […] Initial rate data was collected in each well, and a standard curve was generated each day in order to correlate the change in absorbance of the reaction to a change in concentration of cofactors. All measurements were performed in triplicate (at least) and the runs were averaged for use in kinetic modeling.
The source holds these as a separate data set.

B1: 2,5-diketo-D-gluconic acid reductase A (Corynebacterium sp., wild type SEQ ID NO:1) variant K232M (Corynebacterium sp. ATCC 31090; K232M) (protein)
chain: MTVPSIVLNDGNSIPQLGYGVFKVPPADTQRAVEEALEVGYRHIDTAAIYGNEEGVGAAIAASGIARDDLFITTKLWNDRHDGDEPAAAIAESLAKLALDQVDLYLVHWPTPAADNYVHAWEKMIELRAAGLTRSIGVSNHLVPHLERIVAATGVVPAVNQIELHPAYQQREITDWAAAHDVKIESWGPLGQGKYDLFGAEPVTAAAAAHGKTPAQAVLRWHLQKGFVVFPMSVRRERLEENLDVFDFDLTDTEIAAIDAMDPGDGSGRVSAHPDEVD
notes: GroES fragment (N); made in house; host or cells: E. coli JM109
In the case of B1, the kcat/Km in data set [1] is listed as 0.593 ± 0.023 min^−1/mm^−1.

B2: 2,5-diketo-D-gluconic acid reductase A (Corynebacterium sp., wild type SEQ ID NO:1) variant R235G (Corynebacterium sp. ATCC 31090; R235G) (protein)
chain: MTVPSIVLNDGNSIPQLGYGVFKVPPADTQRAVEEALEVGYRHIDTAAIYGNEEGVGAAIAASGIARDDLFITTKLWNDRHDGDEPAAAIAESLAKLALDQVDLYLVHWPTPAADNYVHAWEKMIELRAAGLTRSIGVSNHLVPHLERIVAATGVVPAVNQIELHPAYQQREITDWAAAHDVKIESWGPLGQGKYDLFGAEPVTAAAAAHGKTPAQAVLRWHLQKGFVVFPKSVGRERLEENLDVFDFDLTDTEIAAIDAMDPGDGSGRVSAHPDEVD
notes: as for B1
For the protein B2, the kcat/Km in data set [2] is on record as 3.58 ± 0.023 min^−1/mm^−1.

B3: 2,5-diketo-D-gluconic acid reductase A (Corynebacterium sp., wild type SEQ ID NO:1) variant K232Q (Corynebacterium sp. ATCC 31090; K232Q) (protein)
chain: MTVPSIVLNDGNSIPQLGYGVFKVPPADTQRAVEEALEVGYRHIDTAAIYGNEEGVGAAIAASGIARDDLFITTKLWNDRHDGDEPAAAIAESLAKLALDQVDLYLVHWPTPAADNYVHAWEKMIELRAAGLTRSIGVSNHLVPHLERIVAATGVVPAVNQIELHPAYQQREITDWAAAHDVKIESWGPLGQGKYDLFGAEPVTAAAAAHGKTPAQAVLRWHLQKGFVVFPQSVRRERLEENLDVFDFDLTDTEIAAIDAMDPGDGSGRVSAHPDEVD
notes: as for B1
Regarding B3, in data set [1], the kcat/Km was determined as 0.634 ± 0.037 min^−1/mm^−1.

B4: 2,5-diketo-D-gluconic acid reductase A (Corynebacterium sp., wild type SEQ ID NO:1) variant K232G (Corynebacterium sp. ATCC 31090; K232G) (protein)
chain: MTVPSIVLNDGNSIPQLGYGVFKVPPADTQRAVEEALEVGYRHIDTAAIYGNEEGVGAAIAASGIARDDLFITTKLWNDRHDGDEPAAAIAESLAKLALDQVDLYLVHWPTPAADNYVHAWEKMIELRAAGLTRSIGVSNHLVPHLERIVAATGVVPAVNQIELHPAYQQREITDWAAAHDVKIESWGPLGQGKYDLFGAEPVTAAAAAHGKTPAQAVLRWHLQKGFVVFPGSVRRERLEENLDVFDFDLTDTEIAAIDAMDPGDGSGRVSAHPDEVD
notes: as for B1
Consider B4, for which the kcat/Km in data set [2] is 0.874 ± 0.028 min^−1/mm^−1.

B5: 2,5-diketo-D-gluconic acid reductase A (Corynebacterium sp., wild type SEQ ID NO:1) variant R238H (Corynebacterium sp. ATCC 31090; R238H) (protein)
chain: MTVPSIVLNDGNSIPQLGYGVFKVPPADTQRAVEEALEVGYRHIDTAAIYGNEEGVGAAIAASGIARDDLFITTKLWNDRHDGDEPAAAIAESLAKLALDQVDLYLVHWPTPAADNYVHAWEKMIELRAAGLTRSIGVSNHLVPHLERIVAATGVVPAVNQIELHPAYQQREITDWAAAHDVKIESWGPLGQGKYDLFGAEPVTAAAAAHGKTPAQAVLRWHLQKGFVVFPKSVRREHLEENLDVFDFDLTDTEIAAIDAMDPGDGSGRVSAHPDEVD
notes: as for B1
Take B5: the kcat/Km in data set [2] was 3.87 ± 0.13 min^−1/mm^−1.

B6: 2,5-diketo-D-gluconic acid reductase A (Corynebacterium sp., wild type SEQ ID NO:1) variant R235T (Corynebacterium sp. ATCC 31090; R235T) (protein)
chain: MTVPSIVLNDGNSIPQLGYGVFKVPPADTQRAVEEALEVGYRHIDTAAIYGNEEGVGAAIAASGIARDDLFITTKLWNDRHDGDEPAAAIAESLAKLALDQVDLYLVHWPTPAADNYVHAWEKMIELRAAGLTRSIGVSNHLVPHLERIVAATGVVPAVNQIELHPAYQQREITDWAAAHDVKIESWGPLGQGKYDLFGAEPVTAAAAAHGKTPAQAVLRWHLQKGFVVFPKSVTRERLEENLDVFDFDLTDTEIAAIDAMDPGDGSGRVSAHPDEVD
notes: as for B1
As to B6, in data set [2], the kcat/Km is 1.34 ± 0.28 min^−1/mm^−1.

B7: 2,5-diketo-D-gluconic acid reductase A, wild type, Corynebacterium sp. (ATCC Strain No. 31090; Genbank Accession No. 4699594; SEQ ID NO:1) (Corynebacterium sp. … (protein)
chain: MTVPSIVLNDGNSIPQLGYGVFKVPPADTQRAVEEALEVGYRHIDTAAIYGNEEGVGAAIAASGIARDDLFITTKLWNDRHDGDEPAAAIAESLAKLALDQVDLYLVHWPTPAADNYVHAWEKMIELRAAGLTRSIGVSNHLVPHLERIVAATGVVPAVNQIELHPAYQQREITDWAAAHDVKIESWGPLGQGKYDLFGAEPVTAAAAAHGKTPAQAVLRWHLQKGFVVFPKSVRRERLEENLDVFDFDLTDTEIAAIDAMDPGDGSGRVSAHPDEVD
notes: as for B1
B7: the kcat/Km in data set [2] amounted to 0.724 ± 0.026 min^−1/mm^−1.

B8: 2,5-diketo-D-gluconic acid reductase A (Corynebacterium sp., wild type SEQ ID NO:1) variant K232S (Corynebacterium sp. ATCC 31090; K232S) (protein)
chain: MTVPSIVLNDGNSIPQLGYGVFKVPPADTQRAVEEALEVGYRHIDTAAIYGNEEGVGAAIAASGIARDDLFITTKLWNDRHDGDEPAAAIAESLAKLALDQVDLYLVHWPTPAADNYVHAWEKMIELRAAGLTRSIGVSNHLVPHLERIVAATGVVPAVNQIELHPAYQQREITDWAAAHDVKIESWGPLGQGKYDLFGAEPVTAAAAAHGKTPAQAVLRWHLQKGFVVFPSSVRRERLEENLDVFDFDLTDTEIAAIDAMDPGDGSGRVSAHPDEVD
notes: as for B1
With B8, the kcat/Km in data set [2] stood at 0.318 ± 0.018 min^−1/mm^−1.

B9: 2,5-diketo-D-gluconic acid reductase A (Corynebacterium sp., wild type SEQ ID NO:1) variant R238E (Corynebacterium sp. ATCC 31090; R238E) (protein)
chain: MTVPSIVLNDGNSIPQLGYGVFKVPPADTQRAVEEALEVGYRHIDTAAIYGNEEGVGAAIAASGIARDDLFITTKLWNDRHDGDEPAAAIAESLAKLALDQVDLYLVHWPTPAADNYVHAWEKMIELRAAGLTRSIGVSNHLVPHLERIVAATGVVPAVNQIELHPAYQQREITDWAAAHDVKIESWGPLGQGKYDLFGAEPVTAAAAAHGKTPAQAVLRWHLQKGFVVFPKSVRREELEENLDVFDFDLTDTEIAAIDAMDPGDGSGRVSAHPDEVD
notes: as for B1
For B9, in data set [2], the kcat/Km was found to be 1.49 ± 0.24 min^−1/mm^−1.

Source of the values: US6423518B1, “Design and production of mutant 2,5-diketo-D-gluconic acid reductase enzymes with altered cofactor dependency” (Rutgers, the State University, priority 2000, dated 2002).
